# Read-outs that look alike come from different tables or passages of the source.
# B1: Murine 15D5 antibody (M5.15D5.2A1.1H10) (antibody, IgG1, V domains shown)
# VH: EFQLQQSGPELVKPGASVKISCKASGYSFTDYNMNWVKQNNGKSLEWIGGINPNYGTTVYNQKFKGKATLTVDQSSSTAYMQLVSLTSEDSAVYYCARMTTIVPFDYWGQGTTLTVSS
# VL: DIQMTQTTFSLSASLGDRVTISCRASQDISNYLNWYQQKPDGTVKLLIYYTSTLHSGVPSRFSGSGSGTDYFLTIRNLEEEDIATYFCQQGYTLPWTFGGGTKLDIK
# notes: Mouse monoclonal, IgG1; also called m15D5; M5.15D5.1C1
# What was measured:
# Human HER3 receptor [1] = biological target: T1, Human HER3 receptor (human, UniProt P21860 20-1342); experiment: cell-based or functional assay
# Human HER3 receptor [2] = biological target: T1, Human HER3 receptor; experiment: cell-based or functional assay; remark: listed apart in the source
# Human HER3 receptor [3] = biological target: T1, Human HER3 receptor; experiment: cell-based or functional assay; remark: listed apart in the source
# Human HER3 receptor [4] = biological target: T1, Human HER3 receptor; experiment: cell-based or functional assay; remark: listed apart in the source
# [5] = biological target: T2, Full-length human HER3 extracellular domain (ECD) (human, UniProt P21860 20-643); experiment: affinity summary table, method not given
# T2 construct: also called human HER3 ECD; HER-3 ECD full length
# Human HER3 ECD domain II [6] = biological target: T3, Human HER3 ECD domain II (human, UniProt P21860 184-329); experiment: affinity summary table, method not given
# T3 construct: also called D2; Domain 2
# Human HER3 ECD domain I = biological target: T4, Human HER3 ECD domain I (human, UniProt P21860 20-183); experiment: DELFIA, plate coated with HER3 Domain I 1ug/ml
# T4 construct: also called D1; sub-domain 1
# Experimental: (§1) Dissociation Enhanced Lanthanide Fluorescence Immunoassay (DELFIA) for detection of the anti-HER3 antibodies to HER3 extracellular domain (ECD) was used. The DELFIA procedures were as follows: white Maxisorp 96-well plates (Nunc #437796) were coated with 100 ul/well of 1 ug/ml HER-3 ECD full length or HER3Domain I, II, III and IV in 0.1M carbonate buffer pH 9.5 overnight at 4° C. These plates were blocked with casein in TBS (Thermo Scientific #37532 lot#JD121074). The neat hybridoma supernatant, or the purified anti-HER3 antibodies diluted in Perkin Elmer #4002-0010 Assay Buffer from 10 ug/ml (or 100 ug/ml) to 0.01 ug/ml, or the PK serum samples with a minimum of 3 dilutions (100 ul/well) were added to the plate. These samples were incubated for 2 hours at room temperature while on a plate shaker or overnight at 4° C. […] The plate was washed 4 times with tris-buffer plus 0.05% tween-20 (Perkin Elmer #4010-0010) on a BIOTEK™ plate washer following each antibody incubation step. 100 ul/well of DELFIA enhancement solution (Perkin Elmer 1244-105) was added for 5 minutes at room temperature. […] Antibody binding was recorded as europium counts per well.
# Human HER3 ECD domain IV = biological target: T5, Human HER3 ECD domain IV (human, UniProt P21860 496-643); experiment: DELFIA, plate coated with HER3 Domain IV 1ug/ml
# T5 construct: also called D4; sub-domain 4
# Experimental: as §1
# [7] = biological target: T6, Human HER3 ECD domain III (human, UniProt P21860 330-495); experiment: DELFIA, plate coated with HER3 Domain III 1ug/ml
# T6 construct: also called D3; Domain 3
# Experimental: as §1
# [8] = biological target: T2, Full-length human HER3 extracellular …; experiment: BIACORE 2000 SPR, mAb captured, HER3 protein as analyte, 25 C
# Human HER3 ECD domain II [9] = biological target: T3, Human HER3 ECD domain II; experiment: as above
# [10] = biological target: T7, Human HER3 ECD domain 1-2 protein (human, UniProt P21860 20-329); experiment: as above
# T7 construct: also called D1-2; sub-domains 1-2
# [11] = biological target: T8, Human HER3 ECD domain 2-3 protein (human, UniProt P21860 184-495); experiment: as above
# T8 construct: also called D2-3; sub-domains 2-3
# [12] = biological target: T9, Murine HER3 on B16 and B16F10 melanoma cells (murine, UniProt Q61526 20-1339); experiment: flow cytometry on B16F10 murine melanoma cells, antibody labelled with a Zenon APC kit [c]
# T9 construct: whole, on cells
# Excerpt: B16F10 ZENON™ labeling kits: [0530] Mouse IgG1 PE—Invitrogen Z25021 [0531] Mouse IgG1 APC—Invitrogen Z25051 [0532] Mouse IgG2b APC—Invitrogen Z25151 Method: Commercially available anti-human EGFR and HER2 antibodies were provided. A commercially available HER3 antibody represented by the provider to recognizes human HER3 was provided. The murine 15D5 antibody, murine 1D9 antibody (M5.1D9.1F5), murine 24H5 antibody (M5.24H5.C2) antibodies were also provided. These antibodies were labeled with either PE or APC using the ZENON™ labeling kits (Invitrogen). 5×10⁶ B 16, or B16F10, murine melanoma cells were added to flow cytometry tubes containing the labeled anti-HER3 antibodies. Cells and antibodies were incubated for 30 minutes on ice in the dark, washed and resuspended in FACS buffer. Cells were then analyzed on a FACSCANTO™ flow cytometer. Data analysis was performed using […]™ software, developed by BD Biosciences. Cell populations were gated using forward vs. side scatter and histograms of fluorescent intensities were generated.
# Human HER3 ECD domain II [13] = biological target: T3, Human HER3 ECD domain II; experiment: DELFIA (europium time-resolved fluorescence), plate coated with HER3 Domain II 1ug/ml, antibody titrated 0.001-10 ug/ml
# T1 sequence (P21860 20-1342 limits assumed): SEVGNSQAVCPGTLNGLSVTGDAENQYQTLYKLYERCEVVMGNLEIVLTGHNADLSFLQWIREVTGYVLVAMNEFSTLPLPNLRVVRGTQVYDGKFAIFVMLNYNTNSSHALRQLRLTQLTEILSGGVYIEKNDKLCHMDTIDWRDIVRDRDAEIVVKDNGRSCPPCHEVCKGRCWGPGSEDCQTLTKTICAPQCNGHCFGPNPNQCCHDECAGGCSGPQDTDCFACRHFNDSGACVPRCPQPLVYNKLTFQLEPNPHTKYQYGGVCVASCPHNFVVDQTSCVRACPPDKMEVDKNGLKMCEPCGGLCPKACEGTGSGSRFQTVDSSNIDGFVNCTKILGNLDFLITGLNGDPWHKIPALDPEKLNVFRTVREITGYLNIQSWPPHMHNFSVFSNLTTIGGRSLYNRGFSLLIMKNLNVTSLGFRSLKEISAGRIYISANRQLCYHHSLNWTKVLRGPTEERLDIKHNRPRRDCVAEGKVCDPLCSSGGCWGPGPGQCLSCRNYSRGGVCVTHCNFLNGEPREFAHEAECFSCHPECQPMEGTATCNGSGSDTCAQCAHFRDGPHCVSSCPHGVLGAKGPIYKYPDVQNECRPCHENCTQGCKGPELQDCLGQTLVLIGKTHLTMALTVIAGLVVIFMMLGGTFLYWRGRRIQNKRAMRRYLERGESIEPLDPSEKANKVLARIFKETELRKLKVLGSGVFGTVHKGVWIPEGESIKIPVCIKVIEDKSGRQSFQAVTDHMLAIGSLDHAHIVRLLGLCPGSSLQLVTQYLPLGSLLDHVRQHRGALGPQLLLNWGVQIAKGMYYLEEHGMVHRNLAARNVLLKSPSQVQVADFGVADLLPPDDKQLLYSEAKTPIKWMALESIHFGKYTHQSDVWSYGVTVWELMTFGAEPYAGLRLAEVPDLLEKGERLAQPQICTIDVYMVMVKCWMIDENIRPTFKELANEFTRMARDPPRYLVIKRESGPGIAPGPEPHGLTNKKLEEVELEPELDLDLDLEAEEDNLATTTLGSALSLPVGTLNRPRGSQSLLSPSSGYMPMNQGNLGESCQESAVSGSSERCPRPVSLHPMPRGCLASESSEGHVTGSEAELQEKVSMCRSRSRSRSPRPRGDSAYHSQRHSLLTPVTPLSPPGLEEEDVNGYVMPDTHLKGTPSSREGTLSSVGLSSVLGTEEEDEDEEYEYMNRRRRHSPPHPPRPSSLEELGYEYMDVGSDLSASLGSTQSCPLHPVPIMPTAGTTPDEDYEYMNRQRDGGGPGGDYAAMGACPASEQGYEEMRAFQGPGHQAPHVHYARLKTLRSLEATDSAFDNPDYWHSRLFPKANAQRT
# T2 sequence (P21860 20-643): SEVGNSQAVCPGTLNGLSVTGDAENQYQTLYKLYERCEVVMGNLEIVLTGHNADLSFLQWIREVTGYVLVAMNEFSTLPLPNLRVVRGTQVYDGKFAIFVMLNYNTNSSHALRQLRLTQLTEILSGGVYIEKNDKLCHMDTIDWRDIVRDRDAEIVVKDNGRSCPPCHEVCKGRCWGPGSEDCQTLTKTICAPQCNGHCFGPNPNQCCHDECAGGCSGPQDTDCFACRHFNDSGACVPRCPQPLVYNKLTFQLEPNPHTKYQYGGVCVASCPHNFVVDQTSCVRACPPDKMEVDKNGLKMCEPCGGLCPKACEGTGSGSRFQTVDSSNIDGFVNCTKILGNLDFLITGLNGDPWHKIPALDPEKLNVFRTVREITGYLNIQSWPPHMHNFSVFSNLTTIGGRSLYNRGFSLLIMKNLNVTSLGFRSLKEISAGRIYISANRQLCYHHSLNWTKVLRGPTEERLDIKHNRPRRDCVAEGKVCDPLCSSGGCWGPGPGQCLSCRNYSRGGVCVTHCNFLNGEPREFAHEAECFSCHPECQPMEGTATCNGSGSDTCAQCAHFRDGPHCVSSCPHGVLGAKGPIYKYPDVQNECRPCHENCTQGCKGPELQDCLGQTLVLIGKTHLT
# T3 sequence (P21860 184-329): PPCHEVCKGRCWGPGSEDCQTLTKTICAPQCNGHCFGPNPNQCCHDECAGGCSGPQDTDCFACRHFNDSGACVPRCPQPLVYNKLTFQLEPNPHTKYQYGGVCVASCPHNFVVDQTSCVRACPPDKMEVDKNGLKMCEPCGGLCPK
# T7 sequence (P21860 20-329): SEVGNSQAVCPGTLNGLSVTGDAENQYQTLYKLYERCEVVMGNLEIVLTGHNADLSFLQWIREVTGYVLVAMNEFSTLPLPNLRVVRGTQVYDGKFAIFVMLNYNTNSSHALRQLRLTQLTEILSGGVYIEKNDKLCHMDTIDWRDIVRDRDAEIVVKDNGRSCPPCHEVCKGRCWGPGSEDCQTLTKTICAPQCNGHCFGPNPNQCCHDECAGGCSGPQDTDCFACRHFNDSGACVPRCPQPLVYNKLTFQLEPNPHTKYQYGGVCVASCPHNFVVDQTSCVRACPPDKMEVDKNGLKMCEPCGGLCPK
# T8 sequence (P21860 184-495): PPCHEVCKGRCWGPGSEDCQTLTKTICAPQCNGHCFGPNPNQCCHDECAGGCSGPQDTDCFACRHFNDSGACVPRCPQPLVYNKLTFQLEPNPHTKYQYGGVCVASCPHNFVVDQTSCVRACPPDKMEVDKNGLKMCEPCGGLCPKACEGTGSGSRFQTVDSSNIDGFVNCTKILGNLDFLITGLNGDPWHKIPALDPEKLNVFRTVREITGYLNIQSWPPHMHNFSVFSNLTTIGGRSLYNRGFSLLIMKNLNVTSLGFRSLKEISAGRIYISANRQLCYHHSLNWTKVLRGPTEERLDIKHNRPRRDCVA
# T9 sequence (Q61526 20-1339, one chain of several): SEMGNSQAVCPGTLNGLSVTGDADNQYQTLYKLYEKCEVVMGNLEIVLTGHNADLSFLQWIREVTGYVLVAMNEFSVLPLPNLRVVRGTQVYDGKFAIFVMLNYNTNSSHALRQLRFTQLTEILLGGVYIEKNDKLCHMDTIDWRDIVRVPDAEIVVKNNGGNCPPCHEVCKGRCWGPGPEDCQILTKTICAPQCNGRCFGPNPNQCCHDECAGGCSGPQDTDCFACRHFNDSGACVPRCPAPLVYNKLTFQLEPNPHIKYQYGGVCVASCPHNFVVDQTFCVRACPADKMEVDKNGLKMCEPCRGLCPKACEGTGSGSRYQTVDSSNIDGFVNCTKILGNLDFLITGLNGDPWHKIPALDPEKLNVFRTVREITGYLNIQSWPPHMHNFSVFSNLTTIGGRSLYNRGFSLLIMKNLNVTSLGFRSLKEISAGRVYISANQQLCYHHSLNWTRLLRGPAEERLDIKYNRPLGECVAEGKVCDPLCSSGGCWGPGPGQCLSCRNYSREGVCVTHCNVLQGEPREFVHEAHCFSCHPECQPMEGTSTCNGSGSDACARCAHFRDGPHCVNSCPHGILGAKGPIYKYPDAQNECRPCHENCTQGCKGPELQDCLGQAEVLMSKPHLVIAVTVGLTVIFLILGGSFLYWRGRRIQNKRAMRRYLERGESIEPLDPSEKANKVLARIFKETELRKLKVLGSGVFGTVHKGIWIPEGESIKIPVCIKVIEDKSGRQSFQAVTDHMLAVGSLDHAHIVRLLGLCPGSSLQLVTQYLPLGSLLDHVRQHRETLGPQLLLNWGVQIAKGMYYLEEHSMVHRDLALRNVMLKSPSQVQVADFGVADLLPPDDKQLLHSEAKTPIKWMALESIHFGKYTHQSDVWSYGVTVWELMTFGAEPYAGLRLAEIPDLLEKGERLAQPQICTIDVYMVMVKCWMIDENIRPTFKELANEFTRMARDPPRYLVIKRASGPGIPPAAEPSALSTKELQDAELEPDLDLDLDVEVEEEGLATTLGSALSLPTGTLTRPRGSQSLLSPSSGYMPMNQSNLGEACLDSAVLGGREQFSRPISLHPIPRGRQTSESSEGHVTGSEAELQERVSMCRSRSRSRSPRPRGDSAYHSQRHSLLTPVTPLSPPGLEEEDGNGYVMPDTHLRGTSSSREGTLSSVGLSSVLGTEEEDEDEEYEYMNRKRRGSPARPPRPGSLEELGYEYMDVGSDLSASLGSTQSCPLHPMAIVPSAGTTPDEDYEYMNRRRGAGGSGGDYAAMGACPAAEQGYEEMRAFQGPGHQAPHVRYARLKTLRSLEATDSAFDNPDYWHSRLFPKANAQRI
# T5 sequence (P21860 496-643): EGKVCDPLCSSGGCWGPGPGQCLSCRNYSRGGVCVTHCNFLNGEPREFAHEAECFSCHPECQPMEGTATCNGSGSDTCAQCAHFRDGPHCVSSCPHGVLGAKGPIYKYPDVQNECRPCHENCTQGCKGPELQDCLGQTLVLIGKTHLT
# T6 sequence (P21860 330-495): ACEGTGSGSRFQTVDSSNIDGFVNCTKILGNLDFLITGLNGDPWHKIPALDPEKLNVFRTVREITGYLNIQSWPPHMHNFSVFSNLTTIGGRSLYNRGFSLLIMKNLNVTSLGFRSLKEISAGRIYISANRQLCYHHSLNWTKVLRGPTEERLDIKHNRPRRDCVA
# T4 sequence (P21860 20-183): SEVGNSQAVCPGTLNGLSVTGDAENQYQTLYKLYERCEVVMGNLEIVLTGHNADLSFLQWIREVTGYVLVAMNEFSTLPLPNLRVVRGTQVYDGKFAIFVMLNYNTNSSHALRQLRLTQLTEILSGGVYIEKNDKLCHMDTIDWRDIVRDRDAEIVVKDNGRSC
binder,measurement,setting,value
B1,"Phospho-HER3 ELISA IC50, heregulin induced, BT-474 cells",Human HER3 receptor [1],0.12 mg/L
same,"Phospho-HER3 ELISA IC50, heregulin induced, BxPC3 cells",Human HER3 receptor [1],0.0541 mg/L
same,"Phospho-HER3 ELISA IC50, heregulin induced, CHL-1 cells",Human HER3 receptor [1],0.138 mg/L
same,"Phospho-HER3 ELISA IC50, heregulin induced, MCF7 cells",Human HER3 receptor [1],0.0593 mg/L
same,"Phospho-HER3 ELISA IC50, heregulin induced, N87 cells",Human HER3 receptor [1],0.0533 mg/L
same,"Phospho-HER3 ELISA IC50, heregulin induced, SK-BR-3 cells",Human HER3 receptor [1],0.0191 mg/L
same,"Phospho-AKT ELISA IC50, heregulin induced, BxPC3 cells",Human HER3 receptor [2],0.0605 mg/L
same,"Phospho-HER3 ELISA IC50, betacellulin induced, SK-BR-3 cells",Human HER3 receptor [3],0.0368 mg/L
same,"Phospho-HER3 ELISA IC50, epidermal growth factor induced, SK-BR-3 cells",Human HER3 receptor [3],0.0233 mg/L
same,"Phospho-HER3 ELISA IC50, heregulin induced, SK-BR-3 cells",Human HER3 receptor [3],0.0191 mg/L
same,"Phospho-HER3 … IC50, heregulin induced, CHO EGFR + HER3",Human HER3 receptor [4],0.103 mg/L
same,"Phospho-HER3 … IC50, heregulin induced, CHO HER4 + HER3",Human HER3 receptor [4],0.141 mg/L
same,Kd,[5],~2 nM
same,Kd,Human HER3 ECD domain II [6],0.07 nM
same,binding result,Human HER3 ECD domain I,no binding (tested: 10 ug/ml)
same,binding result,Human HER3 ECD domain IV,no binding (tested: 10 ug/ml)
same,binding result,[7],no binding (tested: 10 ug/ml)
same,Kd,[8],2.32 nM
same,kon,[8],41200 M⁻¹ s⁻¹
same,Kd,Human HER3 ECD domain II [9],0.07 nM
same,kon,Human HER3 ECD domain II [9],1.76e+06 M⁻¹ s⁻¹
same,Kd,[10],0.17 nM
same,kon,[10],345000 M⁻¹ s⁻¹
same,Kd,[11],0.06 nM
same,kon,[11],1.4e+06 M⁻¹ s⁻¹
same,binding result,[12],binds
same,EC50 (read off the curve),Human HER3 ECD domain II [13],~0.2 mg/L
